According to patent US20160271142A1 (CELLERANT THERAPEUTICS, published 2016):

How the values were obtained:
[1] = molecular target: T1, C type Lectin Like molecule 1 (CLL-1), on human cell lines (human, UniProt Q5QGZ9 1-265); assay: mean fluorescent intensity of ADC binding to PL21 cells, relative to control C0-CLT-D202 ADC; CLL-1 status of this line not stated
T1 construct: whole, on cells; The target was presented on cells, either endogenously (HL-60, AML-5) or in over-expressing lines (TF1-CLL1, HEL92.1.7-CLL1); also called CLEC12A; DCAL-2
T1 sequence (looked up): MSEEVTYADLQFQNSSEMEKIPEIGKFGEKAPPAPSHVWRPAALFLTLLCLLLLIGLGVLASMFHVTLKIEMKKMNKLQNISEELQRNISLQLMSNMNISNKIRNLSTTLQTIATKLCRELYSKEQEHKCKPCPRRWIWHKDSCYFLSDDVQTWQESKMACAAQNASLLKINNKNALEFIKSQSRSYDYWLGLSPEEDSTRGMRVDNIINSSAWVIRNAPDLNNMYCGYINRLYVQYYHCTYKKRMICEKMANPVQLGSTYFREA

[2] = molecular target: T1, C type Lectin Like molecule 1 (CLL-1), …; assay: cell-based or functional assay
[3] = molecular target: T1, C type Lectin Like molecule 1 (CLL-1), …; assay: cell-based or functional assay; remark: listed apart in the source
[4] = molecular target: T1, C type Lectin Like molecule 1 (CLL-1), …; assay: mean fluorescent intensity of ADC binding to SHI-1 cells, relative to control C0-CLT-D202 ADC; CLL-1 status of this line not stated
[5] = molecular target: T1, C type Lectin Like molecule 1 (CLL-1), …; assay: mean fluorescent intensity of ADC binding to AML5 cells (express CLL-1), relative to control C0-CLT-D202 ADC
[6] = molecular target: T1, C type Lectin Like molecule 1 (CLL-1), …; assay: mean fluorescent intensity of ADC binding to 293 cells, relative to control C0-CLT-D202 ADC; CLL-1 status of this line not stated
[7] = molecular target: T1, C type Lectin Like molecule 1 (CLL-1), …; assay: mean fluorescent intensity of ADC binding to HEL92.1.7-CLL1 cells, relative to control C0-CLT-D202 ADC
[8] = molecular target: T1, C type Lectin Like molecule 1 (CLL-1), …; assay: mean fluorescent intensity of ADC binding to HNT-34 cells, relative to control C0-CLT-D202 ADC; CLL-1 status of this line not stated
[9] = molecular target: T1, C type Lectin Like molecule 1 (CLL-1), …; assay: mean fluorescent intensity of ADC binding to AML2 cells, relative to control C0-CLT-D202 ADC; CLL-1 status of this line not stated
[10] = molecular target: T1, C type Lectin Like molecule 1 (CLL-1), …; assay: mean fluorescent intensity of ADC binding to U937 cells, relative to control C0-CLT-D202 ADC; CLL-1 status of this line not stated
[11] = molecular target: T1, C type Lectin Like molecule 1 (CLL-1), …; assay: cell-based or functional assay; remark: listed apart in the source
[12] = molecular target: T1, C type Lectin Like molecule 1 (CLL-1), …; assay: mean fluorescent intensity of ADC binding to EOL-1 cells, relative to control C0-CLT-D202 ADC; CLL-1 status of this line not stated
[13] = molecular target: T1, C type Lectin Like molecule 1 (CLL-1), …; assay: mean fluorescent intensity of ADC binding to parental HEL92.1.7 cells, relative to control C0-CLT-D202 ADC; CLL-1 status of this line not stated
[14] = molecular target: T1, C type Lectin Like molecule 1 (CLL-1), …; assay: mean fluorescent intensity of ADC binding to HL-60 cells (express CLL-1), relative to control C0-CLT-D202 ADC
[15] = molecular target: T1, C type Lectin Like molecule 1 (CLL-1), …; assay: mean fluorescent intensity of ADC binding to KG-1a cells, relative to control C0-CLT-D202 ADC; CLL-1 status of this line not stated

C6 relative MFI C6/C0 [1]: 14.7 ratio | C6 relative MFI C6/C0 [4]: 1.4 ratio | C6 relative MFI C6/C0 [5]: 15 ratio | C6 relative MFI C6/C0 [6]: 1.2 ratio | C6 relative MFI C6/C0 [7]: 26.1 ratio | C6 relative MFI C6/C0 [8]: 5.8 ratio | C6 relative MFI C6/C0 [9]: 13 ratio | C6 relative MFI C6/C0 [10]: 14.7 ratio | C6 relative MFI C6/C0 [12]: 20.5 ratio | C6 relative MFI C6/C0 [13]: 1.3 ratio | C6 relative MFI C6/C0 [14]: 20 ratio | C6 relative MFI C6/C0 [15]: 1.3 ratio
B1: C6-CLT-D202 ADC (humanized anti-CLL1 antibody C6-S239C-CYSMAB, cys-substituted at position 239, conjugated to CLT-D202) (antibody, V domains shown)
VH: EVQLVQSGAEVKKPGASVKMSCKASGYTFTSYFIHWVRQAPGQGLEWIGFINPYNDGSKYAQKFQGRATLTSDKSTSTVYMELSSLRSEDTAVYYCTRDDGYYGYAMDYWGQGTLVTVSS
VL: DIQMTQSPSSLSASVGDRVTLTCRATQELSGYLSWLQQKPGKAIKRLIYAASTLDSGVPSRFSGNRAGTDYTLTISSLQPEDFATYYCLQYAIYPYTFGQGTKLEIK
modifications: CLT-D202 (maleimide linker-drug) on the engineered cysteine at position 239 (S239C) of the heavy chain constant region; drug to antibody ratio 1.7
IC50 ug/mL, cell killing, TF1-CLL1 cells [2]: 0.008 µg/mL | IC50, killing of proliferating AML-5 cells [3]: 0.03 µg/mL | IC50, killing of quiescent AML-5 cells [3]: 0.02 µg/mL | decrease in IC50 of cell killing, TF1-CLL1 against TF1 [3]: ~1000 fold | target dependent cell killing, HL-60 cells, relative to control C0-CLT-D202 ADC [3]: > 500 fold | IC50 ng/mL, cell killing, AML5 cells [11]: 13 ng/mL | IC50 ng/mL, cell killing, HEL92.1.7-CLL1 cells [11]: 17 ng/mL | IC50 ng/mL, cell killing, HL-60 cells [11]: 11 ng/mL
